From the supplement of paper PMC10724198
± gives the standard deviation of the averaged measurements.

These sequences were tested on Saccharomyces cerevisiae (assay: protein stability index of tFT-peptide fusion (C-terminal peptide) (PSI (0-1 scale)); higher = more stable (slower turnover)). Conditions: genetic background: wild type; temperature: 30 C.
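Also: PSI is a weighted mean of sequencing reads over stability bins, variants kept only with over 10 reads, mCherry proximal and sfGFP distal, peptide attached via GGGS linker.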

Sequence	protein stability index
INLVKRQTVKPP	0.611 ± 0.076
INYSNQNKINRW	0.6294 ± 0.00076
IPGHRHTKRIFG	0.641 ± 0.012
IPPPLPPRAPLP	0.672 ± 0.057
IPRERPAEHYGG	0.6473 ± 0.0018
IPSPYPPPAPLH	0.666 ± 0.011
IPSRALSCLLPC	0.66 ± 0.053
IPSRGVQIPSWV	0.63 ± 0.03
IQAGHLYPESLV	0.708 ± 0.056
IQANLPLLTNQE	0.6631 ± 0.0017
IQDVGLKRLARV	0.675 ± 0.061
IQLQSNGLYSKK	0.665 ± 0.065
IQLRPFLSSPCR	0.609 ± 0.035
IQPDVILLTRFV	0.6592 ± 0.0033
IQRIPSGSGRVR	0.736 ± 0.058
IREQGQSLCKST	0.603 ± 0.029
IRETTYSRPFQL	0.695 ± 0.05
IRGGSRLPFYSS	0.731 ± 0.013
IRKDRGYETGKR	0.6746 ± 0.0043
IRLQKEGIKKIL	0.699 ± 0.019
IRPDLWYGLAVV	0.59 ± 0.023
IRPSGVVPPRAG	0.65 ± 0.048
IRPSNLRPPSYL	0.682 ± 0.022

Sequence	protein stability index
IRQITVTICRGR	0.639 ± 0.067
IRREETKRKRNL	0.755 ± 0.044
IRRNRGLKWNVN	0.613 ± 0.068
IRRRQKYPKKKS	0.6803 ± 0.0059
IRRTNRKETRKE	0.686 ± 0.042
IRSLRWVRRESV	0.706 ± 0.1
ISDRKARSDKNK	0.656 ± 0.071
ISILPDSIGQGA	0.687 ± 0.055
ISLCSVARLGFA	0.704 ± 0.021
ISSRSMGGCWHA	0.673 ± 0.023
ISVAHIPPVYHS	0.643 ± 0.038
ISVEELKSIKKK	0.6296 ± 0.0019
ISVPNPTRPDHP	0.665 ± 0.063
ISVSLWFRGRYY	0.599 ± 0.034
ISVSTDSPVRTW	0.639 ± 0.023
ITEYKIKLKNKE	0.671 ± 0.023
ITIRGLTGRFRQ	0.713 ± 0.17
ITKELHEGEYLY	0.727 ± 0.0086
ITKTGAAEHASL	0.63 ± 0.037
ITLSLGRQQIEL	0.654 ± 0.013
ITMYAPEVDKRR	0.709 ± 0.017
ITSSPSSPPAPP	0.634 ± 0.0096
IVEKAVAKGIKE	0.6767 ± 0.005

Sequence	protein stability index
IVFYWLAHRPCA	0.6297 ± 0.0059
IVGGDSVSALRG	0.643 ± 0.022
IVGLLGICVGRC	0.57 ± 0.024
IVLGGPAWPVAA	0.613 ± 0.034
IVLLNLTHVRSK	0.647 ± 0.024
IVRTDTKPYEQS	0.587 ± 0.013
IVSISCPADWLD	0.754 ± 0.034
IWAEYIDAVLIN	0.6 ± 0.061
IWGLSSLYGCGW	0.728 ± 0.011
IWLVRLSCARAF	0.5374 ± 0.0019
IYSPQIPTPPVL	0.664 ± 0.058
IYTRVWPQSWLP	0.696 ± 0.038
KAGLSFSRQRGW	0.606 ± 0.058
KAIKNKQKFKEK	0.726 ± 0.012
KAKCRNRQDEVI	0.742 ± 0.026
KALGFHGGLHRF	0.5733 ± 0.0027
KAQKKGRHSKEL	0.712 ± 0.0059
KARMEKKRKIKL	0.728 ± 0.073
KCAIKKQEQTSR	0.642 ± 0.02
KCLCSKSGSWPC	0.685 ± 0.0078
KCSSEPMCKTCR	0.626 ± 0.053
KDIVSEPKVKRE	0.744 ± 0.012
KDKGEKEKRRTK	0.719 ± 0.077

Sequence	protein stability index
KDKRKAETKSRN	0.688 ± 0.037
KDVGKVATRRSK	0.696 ± 0.028
KEARKREHKQTN	0.67 ± 0.094
KEGSGQRRARRA	0.686 ± 0.066
KEHTKKQERTPK	0.596 ± 0.051
KEHTNKDEMPKE	0.705 ± 0.074
KEILTNNQKGQD	0.6602 ± 0.0036
KEKKNKKKKQNR	0.701 ± 0.021
KELNRRTNSPSE	0.644 ± 0.046
KENKKNDRRDII	0.728 ± 0.023
KENNWTKKKKGK	0.655 ± 0.064
KEQNKVHTQNKK	0.755 ± 0.29
KERARNTKRGSD	0.641 ± 0.08
KERLLTLHSHSH	0.71 ± 0.037
KERLQLSVNLNI	0.628 ± 0.067
KETTEKTEIRII	0.7 ± 0.012
KEYNIKNEREEK	0.716 ± 0.031
KFNNIQNWRLAY	0.787 ± 0.098
KGCRYVGARHEG	0.698 ± 0.017
KGEGRERSRSRK	0.768 ± 0.034
KGGLLPWGPWNA	0.743 ± 0.064
KGGSVNRLSQVR	0.6713 ± 0.00097
KGHGTTCVGRQV	0.677 ± 0.04

Sequence	protein stability index
KGICALKIATGK	0.603 ± 0.032
KGKRSRTRKPEE	0.677 ± 0.013
KGLSNGKNQIKM	0.597 ± 0.036
KGQGPAKTRTRE	0.723 ± 0.031
KGQKVAYSRHRA	0.718 ± 0.063
KGREKTKKKGTK	0.688 ± 0.011
KGTQINNRCKLK	0.684 ± 0.078
KHDIEYRTQIKK	0.662 ± 0.033
KHRIEYQEKNTF	0.67 ± 0.019
KIEHEGIKKGGT	0.807 ± 0.14
KIIKNKIKKHNK	0.626 ± 0.018
KIKERKNVKGKK	0.685 ± 0.024
KIKINKRIQNKK	0.682 ± 0.036
KIKKKRKQKGKQ	0.722 ± 0.046
KIKNNKNKKKKS	0.693 ± 0.01
KIKTIKKHKKKY	0.713 ± 0.056
KIMIRKIEIKKE	0.69 ± 0.049
KINELGYMNLKM	0.716 ± 0.013
KIPEQRISKTKK	0.745 ± 0.011
KKAKEETSTPDC	0.67 ± 0.034
KKEISSTAGIIV	0.637 ± 0.073
KKETKLKKTEVK	0.69 ± 0.095
KKFRKGKKNKRK	0.657 ± 0.03

Sequence	protein stability index
KKIEAKGMRNDS	0.599 ± 0.055
KKIQKKKKLIPQ	0.7247 ± 0.0058
KKIQKKTPAIDG	0.671 ± 0.1
KKIRGNSQLHPG	0.63 ± 0.015
KKITKPKSQRLV	0.669 ± 0.014
KKKEKKIKKTIK	0.724 ± 0.048
KKKEKQRQSKRR	0.689 ± 0.026
KKKGSKITKIKD	0.699 ± 0.064
KKKIRKKKVRRK	0.649 ± 0.024
KKKKKETKNAQQ	0.685 ± 0.0077
KKKKKHKKPIES	0.666 ± 0.022
KKKKKIPKKAKR	0.666 ± 0.049
KKKKKKEYTKTN	0.718 ± 0.011
KKKKKKKKEKKK	0.726 ± 0.041
KKKKKKKKKKKK	0.6364 ± 0.00086
KKKKKKKNTKTK	0.644 ± 0.0076
KKKKKKKTKKQK	0.696 ± 0.024
KKKKKKKTKKRK	0.717 ± 0.029
KKKKKKNNSKTT	0.739 ± 0.19
KKKKKKTKNEIK	0.643 ± 0.016
KKKKKNKKENAE	0.742 ± 0.086
KKKKKNTIKKNK	0.708 ± 0.0083
KKKKKPKKQNSG	0.6592 ± 0.0047

Sequence	protein stability index
KKKKKQKKKKGT	0.713 ± 0.034
KKKKKQRNQKAK	0.612 ± 0.032
KKKKKSKKKETR	0.807 ± 0.11
KKKKNHKRKKRN	0.828 ± 0.041
KKKKNKKKKKPK	0.615 ± 0.041
KKKKQKIRKVKK	0.725 ± 0.084
KKKKTKPKPKRM	0.6594 ± 0.0047
KKKNRKQKHKQL	0.565 ± 0.014
KKKQKKERKKTK	0.649 ± 0.042
KKKRKDKTKIDK	0.658 ± 0.057
KKKRKKKNRGKK	0.6789 ± 0.004
KKKTKTQTGKKS	0.744 ± 0.016
KKKTRIYKRQKR	0.655 ± 0.077
KKLGLINITIRV	0.535 ± 0.017
KKLNTYISQIEQ	0.707 ± 0.0079
KKMKSKTKEINK	0.698 ± 0.035
KKMKVEKGITQK	0.775 ± 0.068
KKNKKKNRTKIE	0.657 ± 0.022
KKNMIIRVMIGV	0.495 ± 0.074
KKQEKKKNKNDR	0.646 ± 0.028
KKQKEKEKLVYC	0.733 ± 0.085
KKQNRTRLKKSK	0.702 ± 0.03
